Measured values as given in US20210269520A1 (Eli Lilly, published 2021).

Legend:
[1] = target: T1, human CD19, membrane-bound, on cells (human, UniProt P15391 20-556); test: cell-based or functional assay
T1 sequence: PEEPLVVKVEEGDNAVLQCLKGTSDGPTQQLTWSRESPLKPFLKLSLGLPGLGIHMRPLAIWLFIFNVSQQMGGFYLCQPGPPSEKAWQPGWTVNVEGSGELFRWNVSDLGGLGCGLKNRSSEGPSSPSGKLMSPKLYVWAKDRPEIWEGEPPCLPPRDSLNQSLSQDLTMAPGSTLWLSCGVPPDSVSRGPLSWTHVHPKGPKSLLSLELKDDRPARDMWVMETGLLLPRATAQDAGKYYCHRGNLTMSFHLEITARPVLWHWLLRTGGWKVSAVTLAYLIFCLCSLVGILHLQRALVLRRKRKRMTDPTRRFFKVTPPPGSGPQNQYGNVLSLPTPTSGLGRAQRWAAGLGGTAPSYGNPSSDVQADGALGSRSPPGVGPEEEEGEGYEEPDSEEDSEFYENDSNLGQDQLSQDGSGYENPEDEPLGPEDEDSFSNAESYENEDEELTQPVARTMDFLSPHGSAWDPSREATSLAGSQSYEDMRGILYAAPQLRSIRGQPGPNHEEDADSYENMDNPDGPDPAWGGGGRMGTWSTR

[2] = target: T1, human CD19, membrane-bound, on cells; test: cell-based or functional assay; remark: listed apart in the source
[3] = target: T1, human CD19, membrane-bound, on cells; test: MSD-SET solution equilibrium titration at 37° C., fixed CHO cells expressing human CD19; geometric mean of 3 replicates
Protocol: (§1) Following incubation, cells are pelleted by centrifugation. One hundred microliters of the clarified supernatant from the plate is transferred to the prepared MSD plate and incubated on a plate shaker at room temperature for 60 minutes. Following incubation, the plate is washed 3× with TBST, then 100 μL of 1 μg/mL biotinylated goat anti-human IgG primary antibody (Southern Biotech, Catalog 2010-08) in 1% Blocker A is added to all wells. This is incubated on a plate shaker at room temperature for 60 minutes. The plate was washed 3× with TBST, then 100 μL of 1 μg/mL SULFO-TAG streptavidin (Meso Scale Discovery, P/N R32AD-1) in 1% Blocker A was added to all wells. This was incubated on a plate shaker at room temperature for 60 minutes. The plate is washed 3× with TBST, then 1× Read Buffer T (Meso Scale Discovery, P/NR92TC-1) is added immediately before reading the plate. Dissociation constant (KD) and a least common multiplier (LCM) to account for unknown antigen concentrations on cells are globally fit from the MSD-SET data to an equilibrium binding equation (see Darling and Brault, 2005, Kinetic Exclusion Assay Technology: Characterization of Molecular Interactions. Assay and Drug Development Technologies 2: 647-657) using non-linear regression in GraphPad Prism.

[4] = target: T2, cynomolgus monkey CD19, membrane-bound, stably expressed on CHO cells (cynomolgus monkey, UniProt A0A2K5W8L9 20-557); test: MSD-SET solution equilibrium titration at 37° C., fixed CHO cells expressing cynomolgus monkey CD19; geometric mean of 3 replicates
T2 construct: whole, on cells; The cells were fixed with paraformaldehyde for MSD-SET; also called cynomolgus monkey CD19 expressing CHO cells
T2 sequence: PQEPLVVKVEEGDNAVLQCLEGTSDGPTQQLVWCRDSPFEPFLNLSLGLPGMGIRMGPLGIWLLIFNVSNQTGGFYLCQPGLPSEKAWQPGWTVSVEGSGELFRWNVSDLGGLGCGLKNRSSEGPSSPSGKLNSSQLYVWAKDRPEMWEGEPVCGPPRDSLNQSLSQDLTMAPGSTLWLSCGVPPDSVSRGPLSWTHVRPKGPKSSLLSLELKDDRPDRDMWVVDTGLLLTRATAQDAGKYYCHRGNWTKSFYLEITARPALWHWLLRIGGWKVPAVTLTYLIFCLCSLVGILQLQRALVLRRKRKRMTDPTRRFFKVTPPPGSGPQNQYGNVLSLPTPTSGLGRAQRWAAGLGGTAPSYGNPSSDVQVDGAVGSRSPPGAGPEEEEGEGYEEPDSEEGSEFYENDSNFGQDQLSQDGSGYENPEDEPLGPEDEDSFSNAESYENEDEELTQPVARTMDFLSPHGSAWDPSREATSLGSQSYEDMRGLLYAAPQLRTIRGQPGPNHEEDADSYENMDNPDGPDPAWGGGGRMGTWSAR
Protocol: as §1

[5] = target: T3, human CD19 extracellular domain protein (human, UniProt P15391 20-291, biotinylated in the FIG. 2 ELISA and in the Fab screening (sites not given)); test: sandwich ELISA: antibody captured on goat anti-human kappa, biotinylated human CD19 ECD titrated (20 ug/mL to 9 ng/mL), about 16 h wash at 37 C, neutravidin-alkaline phosphatase, absorbance at 560 nm
T3 construct: also called CD19 extracellular domain (ECD) protein; biotinylated human CD19 ECD antigen
T3 sequence: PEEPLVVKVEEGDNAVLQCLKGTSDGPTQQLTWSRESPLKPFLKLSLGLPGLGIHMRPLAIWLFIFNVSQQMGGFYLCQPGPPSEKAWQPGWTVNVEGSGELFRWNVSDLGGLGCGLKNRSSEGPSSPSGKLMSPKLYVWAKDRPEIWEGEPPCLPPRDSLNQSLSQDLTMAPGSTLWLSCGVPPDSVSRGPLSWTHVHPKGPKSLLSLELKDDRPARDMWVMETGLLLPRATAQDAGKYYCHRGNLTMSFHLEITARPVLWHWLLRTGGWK
Protocol: The ELISA assay is performed as follows. A 96 well microtiter plate is coated overnight at 4° C. using 50 μL/well of goat anti-human kappa polyclonal antibody diluted to 5 μg/mL in phosphate buffered saline (PBS). Following overnight incubation, the plate is aspirated and blocked using 200 μL of casein buffer for 1 hour at room temperature. The plate is washed three times using PBST (PBS with 0.1% Tween). The anti-human CD19 antibodies are diluted to 5 μg/mL in PBS casein and 50 μL added to each column of the anti-human kappa coated casein blocked plate for 1 hour at 37° C. The plate is washed three times using PBST. Biotinylated human CD19 extracellular domain protein is serially diluted from 20 μg/mL to 9 ng/mL and 50 μL added to the plates and incubated for 1 hour at 37° C. The plate is washed three times using PBST and then transferred to a beaker containing 1 liter of PBST and incubated with stirring overnight (approx. 16 hr) at 37° C. The wash buffer is aspirated and 50 μL of neutravidin alkaline phosphatase-conjugate diluted 1:1000 in casein buffer is added and incubated for 1 hour at 37° C. The plate is washed three times using PBS 0.1% Tween. Fifty μL of AMP-PMP substrate diluted 1:35 in deionized water is added and the absorbance at 560 nm read on a Spectramax plate reader.

[6] = target: T4, mouse CD19 Fc fusion protein (mouse, UniProt P25918 19-287, limits assumed); test: SPR (Biacore T200) at 37° C., CD19-Fc captured on a protein A chip, Fab injected
T4 construct: Bought from R&D Systems; also called recombinant CD19-Fc; not shown: Fc part of a bought fusion protein
T4 sequence (looked up): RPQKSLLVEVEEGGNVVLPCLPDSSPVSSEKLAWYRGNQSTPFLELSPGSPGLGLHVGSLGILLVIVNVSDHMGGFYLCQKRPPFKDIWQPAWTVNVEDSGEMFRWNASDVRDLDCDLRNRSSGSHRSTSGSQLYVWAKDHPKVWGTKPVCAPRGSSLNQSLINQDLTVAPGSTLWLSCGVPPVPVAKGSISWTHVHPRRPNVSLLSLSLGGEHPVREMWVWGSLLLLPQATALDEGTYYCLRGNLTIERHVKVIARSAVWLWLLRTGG
Protocol: (§2) Biacore T200 instrument (GE Healthcare Life Sciences), reagents, and Biacore T200 Evaluation Software Ver 3.1 are used for the surface plasmon resonance analysis of human, mouse and cynomolgus monkey CD19 binding to the Fab fragment of CB3f. Recombinant CD19-Fc proteins are purchased from R&D Systems. A protein A sensor chip (GE protein A chip P/N 2912755) is used. Running buffer is 1×HBS-EP+ (Teknova P/N H8022), and running temperature is 37° C.
(§3) CD19 Fc fusion proteins are diluted to 3 μg/mL in running buffer, and approximately 60 RU each of human, cynomolgus monkey, and mouse proteins are captured in flow cells (Fc) 2, 3 and 4, respectively. CB3f Fab fragment is diluted to 1000 nM in running buffer and then 5-fold serially diluted in running buffer to 1.6 nM for a total of 5 dilutions. Fab or buffer blank is injected at 50 μL/min for 300 seconds followed by a 900 second dissociation phase. Regeneration is performed by injecting 10 mM glycine pH 1.5 for 30 seconds at 50 μL/min over all Fc. Reference-subtracted data is collected as Fc2-Fc1, Fc3-Fc1 and Fc4-Fc1, and then reference-subtracted data is blank subtracted. The on-rate (kₒₙ) and off-rate (koff) are fit using the “1:1 Binding” model. The affinity (KD) is calculated from the binding kinetics according to the relationship: KD=koff/kₒₙ.

[7] = target: T5, human CD19 Fc fusion protein (human, UniProt P15391 20-291); test: SPR (Biacore T200) at 37° C., CD19-Fc captured on a protein A chip, Fab injected, KD = koff/kon
T5 construct: Bought from R&D Systems; also called recombinant CD19-Fc; not shown: Fc part of a bought fusion protein
T5 sequence: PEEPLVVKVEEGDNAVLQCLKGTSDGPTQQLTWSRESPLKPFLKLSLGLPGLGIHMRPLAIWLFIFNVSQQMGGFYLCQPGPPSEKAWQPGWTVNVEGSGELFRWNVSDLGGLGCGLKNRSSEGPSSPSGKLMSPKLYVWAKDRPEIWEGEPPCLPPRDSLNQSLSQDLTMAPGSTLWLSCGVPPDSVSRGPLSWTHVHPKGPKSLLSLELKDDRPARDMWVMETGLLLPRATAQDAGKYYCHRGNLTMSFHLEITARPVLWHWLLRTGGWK
Protocol: as §2, §3

[8] = target: T6, cynomolgus monkey CD19 Fc fusion protein (cynomolgus monkey, UniProt A0A2K5W8L9 20-292); test: as above
T6 construct: Bought from R&D Systems; also called recombinant CD19-Fc; not shown: Fc part of a bought fusion protein
T6 sequence: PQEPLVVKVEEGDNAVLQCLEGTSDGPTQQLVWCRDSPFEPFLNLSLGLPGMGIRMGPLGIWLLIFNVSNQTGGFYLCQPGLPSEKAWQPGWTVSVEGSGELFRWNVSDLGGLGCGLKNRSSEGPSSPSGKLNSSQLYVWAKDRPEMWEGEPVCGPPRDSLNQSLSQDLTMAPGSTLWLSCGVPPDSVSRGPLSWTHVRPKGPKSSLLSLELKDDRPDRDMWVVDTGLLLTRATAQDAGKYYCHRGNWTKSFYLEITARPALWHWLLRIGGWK
Protocol: as §2, §3

[9] = target: T5, human CD19 Fc fusion protein; test: SPR (Biacore T200) at 37° C., CD19-Fc captured on a protein A chip, Fab injected, 1:1 binding model
Protocol: as §2, §3

[10] = target: T6, cynomolgus monkey CD19 Fc fusion protein; test: as above
Protocol: as §2, §3

B1: anti-human CD19 mAb CB3f (IgG4 isotype) (antibody, V domains shown)
VH: QVQLVQSGAEVKKPGSSVKVSCKASGHTISSYAYSWVRQAPGQGLEWMGDIIPAYGSPNYAQKFQGRVTITADESTSTAYMELSSLRSEDTAVYYCAREDFGKNYAMDVWGQGTLVTVSS
VL: EIVLTQSPGTLSLSPGERATLSCRASQHVSSHYLAWYQQKPGQAPRLLIYGASSRATGIPDRFSGSGSGTDFTLTISRLEPEDFAVYYCQHYGQSQFTFGQGTKVEIKR
notes: also called anti-human CD19 mAb1
IC50, inhibition of primary B cell proliferation ([3H]-thymidine), Average of 12 donors [1]: 7 pM
IC50, inhibition of primary B cell proliferation ([3H]-thymidine), Donor 1 [1]: 6 pM
IC50, inhibition of primary B cell proliferation ([3H]-thymidine), Donor 2 [1]: 9 pM
IC50, inhibition of primary B cell proliferation ([3H]-thymidine), Donor 3 [1]: 3 pM
IC50, inhibition of primary B cell proliferation ([3H]-thymidine), Donor 4 [1]: 6 pM
IC50, inhibition of primary B cell proliferation ([3H]-thymidine), Donor 5 [1]: 4 pM
IC50, inhibition of primary B cell proliferation ([3H]-thymidine), Donor 6 [1]: 3 pM
IC50, inhibition of primary B cell proliferation ([3H]-thymidine), Donor 7 [1]: 3 pM
IC50, inhibition of primary B cell proliferation ([3H]-thymidine), Donor 8 [1]: 5 pM
IC50, inhibition of primary B cell proliferation ([3H]-thymidine), Donor 9 [1]: 5 pM
IC50, inhibition of primary B cell proliferation ([3H]-thymidine), Donor 10 [1]: 28 pM
IC50, inhibition of primary B cell proliferation ([3H]-thymidine), Donor 11 [1]: 4 pM
IC50, inhibition of primary B cell proliferation ([3H]-thymidine), Donor 12 [1]: 5 pM
IC50, inhibition of B cell activation in whole blood (reduction of CD69+ B cells), Average [2]: 8 pM
IC50, inhibition of B cell activation in whole blood (reduction of CD69+ B cells), Donor 1 [2]: 15 pM
IC50, inhibition of B cell activation in whole blood (reduction of CD69+ B cells), Donor 2 [2]: 0.6 pM
IC50, inhibition of B cell activation in whole blood (reduction of CD69+ B cells), Donor 3 [2]: 8 pM
Kd [3]: 3.35 pM
Kd [4]: 45.2 pM
EC50 (read off the curve) [5]: ~0.8 µg/mL

B2: Fab fragment of CB3f (Fab, V domains shown)
VH: QVQLVQSGAEVKKPGSSVKVSCKASGHTISSYAYSWVRQAPGQGLEWMGDIIPAYGSPNYAQKFQGRVTITADESTSTAYMELSSLRSEDTAVYYCAREDFGKNYAMDVWGQGTLVTVSS
VL: EIVLTQSPGTLSLSPGERATLSCRASQHVSSHYLAWYQQKPGQAPRLLIYGASSRATGIPDRFSGSGSGTDFTLTISRLEPEDFAVYYCQHYGQSQFTFGQGTKVEIK
notes: also called CB3f Fab fragment; CB3f Fab
binding result [6]: no binding (tested: 1 µM)
Kd [7]: 76.8 pM
Kd [8]: 94500 pM
koff [9]: 0.000235 s⁻¹
kon [9]: 3.2e+06 M⁻¹ s⁻¹
koff [10]: 0.0978 s⁻¹
kon [10]: 1.04e+06 M⁻¹ s⁻¹
